Assays:
[1] = target: Spermidine N-acetyltransferase (SpeG) from Escherichia coli (Escherichia coli str. K-12 substr. MG1655) (UniProt P0A951); test: SPR; SpeG (46 uM) amine-coupled; the surface exposed to 0.5 mM spermidine before the RcsB constructs were injected as analytes; 4 C; 10 mM HEPES pH 8.3, 100 mM sodium chloride; Reichert4SR; one-to-one model
[2] = target: Spermidine N-acetyltransferase (SpeG) from Escherichia coli (Escherichia coli str. K-12 substr. MG1655) (UniProt P0A951); test: SPR; SpeG (46 uM) amine-coupled to a carboxymethyl dextran chip; RcsB constructs as analytes; no spermidine; 4 C; 10 mM HEPES pH 8.3, 100 mM sodium chloride; Reichert SR7500DC; one-to-one model

Chain of UniProt P0A951 (P0A951 whole entry): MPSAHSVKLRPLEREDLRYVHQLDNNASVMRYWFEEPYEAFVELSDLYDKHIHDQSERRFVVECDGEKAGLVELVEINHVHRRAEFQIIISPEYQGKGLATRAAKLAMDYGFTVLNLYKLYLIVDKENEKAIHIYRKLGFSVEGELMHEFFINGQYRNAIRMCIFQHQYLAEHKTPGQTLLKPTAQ

Kd [1]	Kd [2]	Substance
128 µM		full-length RcsB from Escherichia coli (from UniProt P0DMC7 1-216) (natural protein)
281 µM	67 µM	C-terminal DNA binding domain of RcsB (residues 128-216) (from UniProt P0DMC7 128-216) (domain or fragment)

Source: article PMC6298664
